# System: Escherichia coli TOP10
# Assay: shrunken log2 fold change of peptide-encoding DNA abundance (4.5 h post-induction vs induction); higher = less antimicrobial activity (less host growth inhibition)
# Settings: time post-induction: 4.5 h; library: site-saturation at positions 5, 18, 19, 20
# 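Note: peptides expressed intracellularly from a pBAD plasmid library in pooled LB shake-flask culture, induced with 0.3% L-arabinose, DNA abundance read by NGS, three biological replicates, DESeq2 with apeglm shrinkage.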
row,Sequence,shrunken log2 fold change
1,RRIRVRPPRLPRPRPRPLSDPRP,0.0263
2,RRIRHRPPRLPRPRPRPHKMPRP,-0.266
3,RRIRVRPPRLPRPRPRPDSMPRP,-0.103
4,RRIRARPPRLPRPRPRPYETPRP,-0.0398
5,RRIRVRPPRLPRPRPRPPITPRP,-0.117
6,RRIRVRPPRLPRPRPRPRTHPRP,0.199
7,RRIRKRPPRLPRPRPRPWTNPRP,-0.0144
8,RRIRCRPPRLPRPRPRPIECPRP,-0.00475
9,RRIRARPPRLPRPRPRPYATPRP,0.0217
10,RRIRMRPPRLPRPRPRPQGNPRP,-0.0324
11,RRIRGRPPRLPRPRPRPTFRPRP,-0.135
12,RRIRDRPPRLPRPRPRPQFVPRP,-0.0477
13,RRIRKRPPRLPRPRPRPHIYPRP,-0.175
14,RRIRWRPPRLPRPRPRPYGGPRP,-0.683
15,RRIRWRPPRLPRPRPRPNHWPRP,-0.0748
16,RRIRWRPPRLPRPRPRPQLRPRP,0.0178
17,RRIRGRPPRLPRPRPRPHVWPRP,0.201
18,RRIRSRPPRLPRPRPRPSPRPRP,0.217
19,RRIRIRPPRLPRPRPRPEGAPRP,0.27
20,RRIRVRPPRLPRPRPRPYEYPRP,-0.137
21,RRIRKRPPRLPRPRPRPTWWPRP,0.0302
22,RRIRWRPPRLPRPRPRPYGMPRP,-0.4
23,RRIRVRPPRLPRPRPRPKHRPRP,0.356
24,RRIRHRPPRLPRPRPRPVNVPRP,0.0798
25,RRIRGRPPRLPRPRPRPMFAPRP,1.57

row,Sequence,shrunken log2 fold change
1,RRIRIRPPRLPRPRPRPTMQPRP,0.0261
2,RRIRDRPPRLPRPRPRPRMLPRP,0.229
3,RRIRWRPPRLPRPRPRPYILPRP,-0.849
4,RRIRKRPPRLPRPRPRPSPDPRP,0.344
5,RRIRLRPPRLPRPRPRPVARPRP,0.551
6,RRIRVRPPRLPRPRPRPECQPRP,0.353
7,RRIRHRPPRLPRPRPRPGMEPRP,-0.0685
8,RRIRKRPPRLPRPRPRPKAFPRP,0.0156
9,RRIRYRPPRLPRPRPRPWDWPRP,-0.0724
10,RRIRLRPPRLPRPRPRPQVCPRP,-0.00713
11,RRIRWRPPRLPRPRPRPIFEPRP,0.308
12,RRIRLRPPRLPRPRPRPYKNPRP,-0.631
13,RRIRFRPPRLPRPRPRPRPPPRP,1.36
14,RRIRKRPPRLPRPRPRPSEIPRP,0.157
15,RRIRHRPPRLPRPRPRPNRAPRP,-0.0865
16,RRIRVRPPRLPRPRPRPRTMPRP,0.0485
17,RRIRWRPPRLPRPRPRPDHVPRP,-0.13
18,RRIRFRPPRLPRPRPRPEHKPRP,-0.0193
19,RRIRTRPPRLPRPRPRPKIFPRP,-0.219
20,RRIRMRPPRLPRPRPRPKLKPRP,2.65
21,RRIRARPPRLPRPRPRPIPPPRP,0.217
22,RRIRNRPPRLPRPRPRPSIAPRP,-0.0838
23,RRIRMRPPRLPRPRPRPSFDPRP,0.485
24,RRIRFRPPRLPRPRPRPRRRPRP,0.658
25,RRIRCRPPRLPRPRPRPIAFPRP,-0.195

row,Sequence,shrunken log2 fold change
1,RRIRYRPPRLPRPRPRPGSDPRP,-0.898
2,RRIRTRPPRLPRPRPRPNWEPRP,0.00854
3,RRIRIRPPRLPRPRPRPVQAPRP,0.0348
4,RRIRMRPPRLPRPRPRPKEKPRP,0.0504
5,RRIRFRPPRLPRPRPRPVQSPRP,-0.16
6,RRIRPRPPRLPRPRPRPIFQPRP,0.0149
7,RRIRDRPPRLPRPRPRPCRDPRP,-0.106
8,RRIRWRPPRLPRPRPRPGCRPRP,0.417
9,RRIRTRPPRLPRPRPRPADAPRP,-0.0445
10,RRIRLRPPRLPRPRPRPCSDPRP,0.0181
11,RRIRGRPPRLPRPRPRPWQSPRP,0.161
12,RRIRNRPPRLPRPRPRPLHPPRP,0.0757
13,RRIRYRPPRLPRPRPRPHLSPRP,-0.235
14,RRIRHRPPRLPRPRPRPQRQPRP,0.0621
15,RRIRQRPPRLPRPRPRPAWLPRP,-0.123
16,RRIRKRPPRLPRPRPRPTVQPRP,0.777
17,RRIRHRPPRLPRPRPRPCNQPRP,-0.185
18,RRIRCRPPRLPRPRPRPIKDPRP,-0.533
19,RRIRDRPPRLPRPRPRPPLRPRP,0.271
20,RRIRIRPPRLPRPRPRPLNNPRP,-1.15
21,RRIRSRPPRLPRPRPRPRMHPRP,0.173
22,RRIRHRPPRLPRPRPRPWFYPRP,-0.244
23,RRIRTRPPRLPRPRPRPWPSPRP,-0.00931
24,RRIRRRPPRLPRPRPRPNHNPRP,-0.329
25,RRIRERPPRLPRPRPRPAPWPRP,0.203

# Reference: the supplement of paper PMC9112550, “Optimization of the antimicrobial peptide Bac7 by deep mutational scanning” (BMC Biology, 2022)
